Paper PMC6628251, “Structural and Functional Impact of Seven Missense Variants of Phenylalanine Hydroxylase” (Genes, 2019)
Residue numbers refer to the chain shown, from its start. “And” between values parts separate entries of the source, which are not always exact repeats. Identical values can stand only once.

B1: human wild type phenylalanine hydroxylase, fusion with maltose-binding protein (enzyme, UniProt P00439 1-452, looked up)
chain: MSTAVLENPGLGRKLSDFGQETSYIEDNCNQNGAISLIFSLKEEVGALAKVLRLFEENDVNLTHIESRPSRLKKDEYEFFTHLDKRSLPALTNIIKILRHDIGATVHELSRDKKKDTVPWFPRTIQELDRFANQILSYGAELDADHPGFKDPVYRARRKQFADIAYNYRHGQPIPRVEYMEEEKKTWGTVFKTLKSLYKTHACYEYNHIFPLLEKYCGFHEDNIPQLEDVSQFLQTCTGFRLRPVAGLLSSRDFLGGLAFRVFHCTQYIRHGSKPMYTPEPDICHELLGHVPLFSDRSFAQFSQEIGLASLGAPDEYIEKLATIYWFTVEFGLCKQGDSIKAYGAGLLSSFGELQYCLSEKPKLLPLELEKTAIQNYTVTEFQPLYYVAESFNDAKEKVRNFAATIPRPFSVRYDPYTQRIEVLDNTQQLKILADSINSEIGILCSALQKIK
notes: phenylalanine hydroxylase (PAH), human, WT cDNA in the pMAL-MBP-c2 vector; also called WT PAH; PAH-MBP fusion protein
B2: human phenylalanine hydroxylase variant p.Thr200Asn, fusion with maltose-binding protein (enzyme, UniProt P00439 1-452, looked up)
chain: B1 chain with T200N
notes: phenylalanine hydroxylase (PAH), human, missense variant from Czech PKU/HPA patients, made by site-directed mutagenesis of pMAL-PAH; Same construct as m1 with one substitution; also called c.599C>A
B3: human phenylalanine hydroxylase variant p.Ala342Pro, fusion with maltose-binding protein (enzyme, UniProt P00439 1-452, looked up)
chain: B1 chain with A342P
notes: phenylalanine hydroxylase (PAH), human, missense variant from Czech PKU/HPA patients, made by site-directed mutagenesis of pMAL-PAH; Same construct as m1 with one substitution; also called c.1024G>C
B4: human phenylalanine hydroxylase variant p.Asn167Tyr, fusion with maltose-binding protein (enzyme, UniProt P00439 1-452, looked up)
chain: B1 chain with N167Y
notes: phenylalanine hydroxylase (PAH), human, missense variant from Czech PKU/HPA patients, made by site-directed mutagenesis of pMAL-PAH; Same construct as m1 with one substitution; also called c.499A>T
B5: human phenylalanine hydroxylase variant p.Ile406Met, fusion with maltose-binding protein (enzyme, UniProt P00439 1-452, looked up)
chain: B1 chain with I406M
notes: phenylalanine hydroxylase (PAH), human, missense variant from Czech PKU/HPA patients, made by site-directed mutagenesis of pMAL-PAH; Same construct as m1 with one substitution; also called c.1218A>G
B6: human phenylalanine hydroxylase variant p.Phe263Ser, fusion with maltose-binding protein (enzyme, UniProt P00439 1-452, looked up)
chain: B1 chain with F263S
notes: phenylalanine hydroxylase (PAH), human, missense variant from Czech PKU/HPA patients, made by site-directed mutagenesis of pMAL-PAH; Same construct as m1 with one substitution; also called c.788T>C
B7: human phenylalanine hydroxylase variant p.Gly239Ala, fusion with maltose-binding protein (enzyme, UniProt P00439 1-452, looked up)
chain: B1 chain with G239A
notes: phenylalanine hydroxylase (PAH), human, missense variant from Czech PKU/HPA patients, made by site-directed mutagenesis of pMAL-PAH; Same construct as m1 with one substitution; also called c.716G>C
B8: human phenylalanine hydroxylase variant p.Asp229Gly, fusion with maltose-binding protein (enzyme, UniProt P00439 1-452, looked up)
chain: B1 chain with D229G
notes: phenylalanine hydroxylase (PAH), human, missense variant from Czech PKU/HPA patients, made by site-directed mutagenesis of pMAL-PAH; Same construct as m1 with one substitution; also called c.686A>G

Tests used:
[1] = target: the molecule itself; assay: SEC; MBP-PAH expressed in E. coli XL1 blue without GroEL/ES; MBPTrap HP affinity, then Superdex 200 HR 10/30; 200 mM NaCl, 20 mM HEPES, pH 7.0; percent of oligomers, tetramers and dimers, mean of three column purifications
[2] = target: the molecule itself; assay: as above; remark: listed apart in the source
[3] = target: the molecule itself; assay: SEC; MBP-PAH co-expressed with GroEL/ES (pGroELS) in E. coli XL1 blue; MBPTrap HP affinity, then Superdex 200 HR 10/30; 200 mM NaCl, 20 mM HEPES, pH 7.0; percent of oligomers, tetramers and dimers, mean of three column purifications

Protein	stoichiometry N [1]	percent of purified protein as dimers [2]	percent of purified protein as tetramers [2]	percent of purified protein as dimers [3]	percent of purified protein as tetramers [3]
B1	4 and 2	–	–	–	–
B2	–	10.5%	40.5%	4.5%	43.8%
B3	–	22%	–	15.5%	3.8%
B4	–	20.2%	33.2%	8.5%	38.8%
B5	–	15.6%	34.2%	6.9%	37.7%
B6	–	27.1%	–	13.6%	11%
B7	–	32.8%	–	14%	5.5%
B8	–	19.3%	–	10.1%	10.2%
